Measured values: US20070015232A1, “Mitotic index assay” (DiscoveRx, Inc., priority 2005, published 2007)

Tests used:
[1] = molecular target: cyto-EA (β-galactosidase enzyme acceptor fragment localized in the cytoplasm) (E. coli) [β-galactosidase: P00722]; experiment: cell-based or functional assay
[2] = molecular target: EA-NLS/NRS (β-galactosidase enzyme acceptor fragment fused to a nuclear localization signal / nuclear retention signal) (E. coli) [β-galactosidase: P00722]; experiment: cell-based or functional assay

Substance | EFC activity, CHO-K1 cyto-EA cells transiently transfected with cJUN-PL, nocodazole and colchicine [1] | EFC (β-galactosidase chemiluminescence after lysis), CHO-K1 pool, Taxol, nocodazole and colchicine overnight [2] | EFC activity (β-galactosidase chemiluminescence after lysis), C2C12 cells, nocodazole 1-10 µg/mL [2] | EFC activity, CHO-K1 clone #69, nocodazole and colchicine [2]
cJUN-PL (c-Jun fused to the PL β-galactosidase enzyme donor fragment) | 2.1 fold |  |  | 
GR-PL (human glucocorticoid receptor fused to PL, a 55 mer α-fragment of β-galactosidase) (from UniProt P04150 1-777) |  | < 4 fold | 2 fold | 3 to 4 fold
